Experimental data reported in patent US20260166139A1.
Values joined by “and” are separate entries in the source; they are usually repeats but may differ in a detail not shown here. Equal values may be shown once.

Tests used:
murine CTLA4 (murine) [1] = target: murine CTLA4 (murine) (UniProt P09793); assay: ELISA on coated CTLA4, source Mouse
murine CTLA4 (murine) [2] = target: murine CTLA4 (murine) (UniProt P09793); assay: ELISA, coat murine CTLA4 0.5 ug/ml; antibody 1 ug/ml
murine CTLA4 (murine) [3] = target: murine CTLA4 (murine) (UniProt P09793); assay: ELISA, coat murine CTLA4 0.5 ug/ml; antibody 0.1 ug/ml
murine CTLA4 (murine) [4] = target: murine CTLA4 (murine) (UniProt P09793); assay: ELISA, coat murine CTLA4 0.5 ug/ml; antibody 0.3 ug/ml
murine CTLA4 (murine) [5] = target: murine CTLA4 (murine) (UniProt P09793); assay: ELISA, coat murine CTLA4 0.5 ug/ml; antibody 0.01 ug/ml
murine CTLA4 (murine) [6] = target: murine CTLA4 (murine) (UniProt P09793); assay: ELISA, coat murine CTLA4 0.5 ug/ml; antibody 0.03 ug/ml
murine CTLA4 (murine) [7] = target: murine CTLA4 (murine) (UniProt P09793); assay: ELISA, coat murine CTLA4 0.5 ug/ml; antibody 0.001 ug/ml
murine CTLA4 (murine) [8] = target: murine CTLA4 (murine) (UniProt P09793); assay: ELISA, coat murine CTLA4 0.5 ug/ml; antibody 0.003 ug/ml
murine CTLA4 (murine) [9] = target: murine CTLA4 (murine) (UniProt P09793); assay: ELISA, coat murine CTLA4 0.5 ug/ml; antibody 0 ug/ml (blank)
murine CTLA4 (murine) [10] = target: murine CTLA4 (murine) (UniProt P09793); assay: ELISA on coated CTLA4, source taken as Mouse; second unlabelled line under 8D2 / Mouse; the run in which 10D1 gave […] and 11.2.1 was not measured
murine CTLA4 (murine) [11] = target: murine CTLA4 (murine) (UniProt P09793); assay: ELISA on coated CTLA4, source taken as Mouse

Row | EC50 (murine CTLA4 (murine) [1]) | absorbance at 450 nm (murine CTLA4 (murine) [2]) | absorbance at 450 nm (murine CTLA4 (murine) [3]) | absorbance at 450 nm (murine CTLA4 (murine) [4]) | absorbance at 450 nm (murine CTLA4 (murine) [5]) | absorbance at 450 nm (murine CTLA4 (murine) [6]) | absorbance at 450 nm (murine CTLA4 (murine) [7]) | absorbance at 450 nm (murine CTLA4 (murine) [8]) | absorbance at 450 nm (murine CTLA4 (murine) [9]) | EC50 (murine CTLA4 (murine) [10]) | EC50 (murine CTLA4 (murine) [11]) | Binder
1 | 0.025 nM | – | – | – | – | – | – | – | – | – | – | humanized antibody 8D2H1L1 (antibody, V domains shown) VH: EVQLVESGGGLVQPGGSMRLSCAASGFTFSDNWMNWVRQAPGKGLEWLAQIRNKPYNYETYYSDSVKGRFTISRDDSKNSVYLQMNSLKTEDTGVYYCTAQFAYWGQGTLVTVSS VL: DIQMTQSPSSLSASVGDRVTITCRTSENIYGGLNWYQRKQGKSPKLLIYGATNLASGMSSRFSGSGSGTDYTLKISSLHPDDVATYYCQNVLRSPFTFGSGTKLEIK
2 | 0.015 nM | 2.82 and 2.68 | 2.75 and 2.72 | 2.81 and 2.76 | 1.61 and 1.56 | 2.34 and 2.38 | 0.358 and 0.355 | 0.784 and 0.76 | 0.063 and 0.052 | 0.071 nM | – | monoclonal antibody 8D2 (antibody, V domains shown) VH: EVKLDETGGGLVQPGRPMKLSCVASGFTFSDNWMNWVRQSPEKGLEWLAQIRNKPYNYETYYSDSVKGRFTISRDDSKSSVYLQMNNLRGEDMGIYYCTAQFAYWGQGTLVTVSA VL: DIQMTQSPASLSASVGETVTITCGTSENIYGGLNWYQRKQGKSPQLLIFGATNLADGMSSRFSGSGSGRQYSLKISSLHPDDVATYYCQNVLRSPFTFGSGTKLEI
3 | 0.015 nM | 2.67 and 2.77 | 2.8 and 2.69 | 2.69 and 2.73 | 1.4 and 1.45 | 2.31 and 2.26 | 0.315 and 0.321 | 0.662 and 0.674 | 0.053 and 0.046 | – | 0.085 nM | 8D2 recombinant antibody, 8D2(Re) (antibody, V domains shown) VH: EVKLDETGGGLVQPGRPMKLSCVASGFTFSDNWMNWVRQSPEKGLEWLAQIRNKPYNYETYYSDSVKGRFTISRDDSKSSVYLQMNNLRGEDMGIYYCTAQFAYWGQGTLVTVSA VL: DIQMTQSPASLSASVGETVTITCGTSENIYGGLNWYQRKQGKSPQLLIFGATNLADGMSSRFSGSGSGRQYSLKISSLHPDDVATYYCQNVLRSPFTFGSGTKLEI
